According to US20250145710A1 (published 2025):

T1: human CLDN6 (human, UniProt P56747 1-220)
T1 chain: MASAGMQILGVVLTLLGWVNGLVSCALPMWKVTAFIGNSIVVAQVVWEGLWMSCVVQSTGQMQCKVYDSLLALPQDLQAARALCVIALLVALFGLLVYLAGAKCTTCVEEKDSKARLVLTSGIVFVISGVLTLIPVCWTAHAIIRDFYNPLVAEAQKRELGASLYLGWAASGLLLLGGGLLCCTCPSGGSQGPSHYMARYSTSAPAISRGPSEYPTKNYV


How the values were obtained:
human CD3 = human CD3 (UniProt P07766 23-207; P04234 22-171; P09693 23-182); assay: flow cytometry cell binding
human CLDN6 = biological target: T1, human CLDN6; assay: flow cytometry cell binding

Chain of human CD3 (P07766 23-207, chain 1 of 3): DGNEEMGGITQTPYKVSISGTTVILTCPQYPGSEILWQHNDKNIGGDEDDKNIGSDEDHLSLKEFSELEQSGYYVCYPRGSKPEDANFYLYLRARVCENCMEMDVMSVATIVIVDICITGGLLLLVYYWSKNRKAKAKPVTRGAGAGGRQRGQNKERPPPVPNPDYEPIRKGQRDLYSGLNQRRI
Chain of human CD3 (P04234 22-171, chain 2 of 3): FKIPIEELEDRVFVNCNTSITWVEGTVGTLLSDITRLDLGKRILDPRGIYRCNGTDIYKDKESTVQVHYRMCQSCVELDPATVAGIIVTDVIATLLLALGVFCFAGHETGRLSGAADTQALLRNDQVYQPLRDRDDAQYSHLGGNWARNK
Chain of human CD3 (P09693 23-182, chain 3 of 3): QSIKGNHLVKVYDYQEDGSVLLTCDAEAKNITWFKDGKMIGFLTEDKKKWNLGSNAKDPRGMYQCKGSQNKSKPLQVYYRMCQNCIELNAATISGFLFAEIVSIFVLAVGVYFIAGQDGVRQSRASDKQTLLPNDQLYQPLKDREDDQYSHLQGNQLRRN

Row | EC50 (human CD3) [nM] | EC50 (human CLDN6) [nM] | Binder
1 | 53.6 | 7.2 | IMC-21-1 IgG-(scFv)2 antibody (bispecific antibody) heavy: not shown light: SYELTQPPSVSVSPGQTARITCSAGSGLYGWYQQKPGQAPVLVIYGTNKRPSGIPERFSGSSSGTTVTLTISGVQAEDEADYYCGSADSSTNAGIFGGGTKLTVLGQPKAAPSVTLFPPSSEELQANKATLVCLISDFYPGAVTVAWKADSSPVKAGVETTTPSKQSNNKYAASSYLSLTPEQWKSHRSYSCQVTHEGSTVEKTVAPTECS
2 | 3.46 | 13.7 | IMC-16-3 scFv-Fab IgG antibody (bispecific antibody) heavy: EVQLLESGGGLVQPGGSLRLSCAASGFTFSSYAMNWVRQAPGKGLEWVAGISSSGRYTGYADSVKGRFTISRDNSKNTLYLQMNSLRAEDTAVYYCAKSVGSGVSWSGYVATSLDAWGQGTLVTVSSASTKGPSVFPLAPSSKSTSGGTAALGCLVKDYFPEPVTVSWNSGALTSGVHTFPAVLQSSGLYSLSSVVTVPSSSLGTQTYICNVNHKPSNTKVDKKVEPKSCDKTHTCPPCPAPEAAGGPSVFLFPPKPKDTLMISRTPEVTCVVVDVSHEDPEVKFNWYVDGVEVHNAKTKPREEQYNSTYRVVSVLTVLHQDWLNGKEYKCKVSNKALPAPIEKTISKAKGQPREPQVYTLPPSREEMTKNQVSLWCLVKGFYPSDIAVEWESNGQPENNYKTTPPVLDSDGSFFLYSKLTVDKSRWQQGNVFSCSVMHEALHNHYTQKSLSLSPGK light: SYELTQPPSVSVSPGQTARITCSAGSGLYGWYQQKPGQAPVLVIYGTNKRPSGIPERFSGSSSGTTVTLTISGVQAEDEADYYCGSADSSTNAGIFGGGTKLTVLGQPKAAPSVTLFPPSSEELQANKATLVCLISDFYPGAVTVAWKADSSPVKAGVETTTPSKQSNNKYAASSYLSLTPEQWKSHRSYSCQVTHEGSTVEKTVAPTECS scFv: EVQLVESGGGLVQPGGSLRLSCAASGFTFSTYAMNWVRQAPGKGLEWVGRIRSKYNNYATYYADSVKGRFTISRDDSKNTLYLQMNSLRAEDTAVYYCVRHGNFGDSYVSWFAYWGQGTLVTVSSGKPGSGKPGSGKPGSGKPGSQAVVTQEPSLTVSPGGTVTLTCGSSTGAVTTSNYANWVQQKPGKSPRGLIGGTNKRAPGVPARFSGSLLGGKAALTISGAQPEDEADYYCALWYSNHWVFGGGTKLTVLASPKSSDKTHTCPPCPAPEAAGGPSVFLFPPKPKDTLMISRTPEVTCVVVDVSHEDPEVKFNWYVDGVEVHNAKTKPREEQYNSTYRVVSVLTVLHQDWLNGKEYKCKVSNKALPAPIEKTISKAKGQPREPQVYTLPPSREEMTKNQVSLSCAVKGFYPSDIAVEWESNGQPENNYKTTPPVLDSDGSFFLVSKLTVDKSRWQQGNVFSCSVMHEALHNHYTQKSLSLSPGK
3 | 2.62 | 24.1 | IMC-16-15 scFv-Fab IgG antibody (bispecific antibody) heavy: EVQLLESGGGLVQPGGSLRLSCAASGFTFSSYAMNWVRQAPGKGLEWVAGISSSGRYTGYADSVKGRFTISRDNSKNTLYLQMNSLRAEDTAVYYCAKSMGSGVSWSGYVATSIDVWGQGTLVTVSSASTKGPSVFPLAPSSKSTSGGTAALGCLVKDYFPEPVTVSWNSGALTSGVHTFPAVLQSSGLYSLSSVVTVPSSSLGTQTYICNVNHKPSNTKVDKKVEPKSCDKTHTCPPCPAPEAAGGPSVFLFPPKPKDTLMISRTPEVTCVVVDVSHEDPEVKFNWYVDGVEVHNAKTKPREEQYNSTYRVVSVLTVLHQDWLNGKEYKCKVSNKALPAPIEKTISKAKGQPREPQVYTLPPSREEMTKNQVSLWCLVKGFYPSDIAVEWESNGQPENNYKTTPPVLDSDGSFFLYSKLTVDKSRWQQGNVFSCSVMHEALHNHYTQKSLSLSPGK light: SYELTQPPSVSVSPGQTARITCSAGSGLYGWYQQKPGQAPVLVIYGTNKRPSGIPERFSGSSSGTTVTLTISGVQAEDEADYYCGSADSSTNAGIFGGGTKLTVLGQPKAAPSVTLFPPSSEELQANKATLVCLISDFYPGAVTVAWKADSSPVKAGVETTTPSKQSNNKYAASSYLSLTPEQWKSHRSYSCQVTHEGSTVEKTVAPTECS scFv: EVQLVESGGGLVQPGGSLRLSCAASGFTFSTYAMNWVRQAPGKGLEWVGRIRSKYNNYATYYADSVKGRFTISRDDSKNTLYLQMNSLRAEDTAVYYCVRHGNFGDSYVSWFAYWGQGTLVTVSSGKPGSGKPGSGKPGSGKPGSQAVVTQEPSLTVSPGGTVTLTCGSSTGAVTTSNYANWVQQKPGKSPRGLIGGTNKRAPGVPARFSGSLLGGKAALTISGAQPEDEADYYCALWYSNHWVFGGGTKLTVLASPKSSDKTHTCPPCPAPEAAGGPSVFLFPPKPKDTLMISRTPEVTCVVVDVSHEDPEVKFNWYVDGVEVHNAKTKPREEQYNSTYRVVSVLTVLHQDWLNGKEYKCKVSNKALPAPIEKTISKAKGQPREPQVYTLPPSREEMTKNQVSLSCAVKGFYPSDIAVEWESNGQPENNYKTTPPVLDSDGSFFLVSKLTVDKSRWQQGNVFSCSVMHEALHNHYTQKSLSLSPGK
4 | 7.3 | 40.5 | IMC-2-7 tandem scFv antibody (bispecific antibody) scFv: SYELTQPPSVSVSPGQTARITCSAGSGLYGWYQQKPGQAPVLVIYGTNKRPSGIPERFSGSSSGTTVTLTISGVQAEDEADYYCGSADSSTNAGIFGGGTKLTVLGGGGSGGGGSGGGGSEVQLLESGGGLVQPGGSLRLSCAASGFTFSSYAMNWVRQAPGKGLEWVAGISSSGRYTGYADSVKGRFTISRDNSKNTLYLQMNSLRAEDTAVYYCAKSVGSGVSWSGYVATSLDAWGQGTLVTVSSGGGGSEVQLVESGGGLVQPGGSLRLSCAASGFTFSTYAMNWVRQAPGKGLEWVGRIRSKYNNYATYYADSVKGRFTISRDDSKNTLYLQMNSLRAEDTAVYYCVRHGNFGDSYVSWFAYWGQGTLVTVSSGKPGSGKPGSGKPGSGKPGSQAVVTQEPSLTVSPGGTVTLTCGSSTGAVTTSNYANWVQQKPGKSPRGLIGGTNKRAPGVPARFSGSLLGGKAALTISGAQPEDEADYYCALWYSNHWVFGGGTKLTVL
